Target: full-length Smad2, wild type (S2FLWT), Q15796
Test: SAXS with ensemble optimization method
Conditions: remark: other sources report otherwise

B1: full-length Smad2, wild type (S2FLWT), Q15796 1-467 (natural protein)
chain: MSSILPFTPPVVKRLLGWKKSAGGSGGAGGGEQNGQEEKWCEKAVKSLVKKLKKTGRLDELEKAITTQNCNTKCVTIPSTCSEIWGLSTPNTIDQWDTTGLYSFSEQTRSLDGRLQVSHRKGLPHVIYCRLWRWPDLHSHHELKAIENCEYAFNLKKDEVCVNPYHYQRVETPVLPPVLVPRHTEILTELPPLDDYTHSIPENTNFPAGIEPQSNYIPETPPPGYISEDGETSDQQLNQSMDTGSPAELSPTTLSPVNHSLDLQPVTYSEPAFWCSIAYYELNQRVGETFHASQPSLTVDGFTDPSNSERFCLGLLSNVNRNATVEMTRRHIGRGVRLYYIGGEVFAECLSDSAIFVQSPNCNQRYGWHPATVCKIPPGCNLKIFNNQEFAALLAQSVNQGFEAVYQLTRMCTIRMSFVKGWGAEYRRQTVTSTPCWIELHLNGPLQWLDKVLTQMGSPSVRCSSMS
percent of the population as dimer at 56 μM: 18% | percent of the population as trimer at 13.8 μM: 1% | percent of the population as trimer at 56.1 μM: 16.4%
